These results are taken from US20230272056A1 (Merck Sharp & Dohme, published 2023).

To fix the notation:
B1: 09BLM (antibody, human IgG1, kappa, L234A L235A, V domains shown)
VH: EVQLVQSGAEVKKPGASVKVSCKASGYTFTSYDMHWVRQAPGQGLEWMGRIDPISGGIKYAQKFQGRATLTVDTSTSTAYMELSRLRSDDTAVYYCARWDYGGYFDVWGQGTLVTVSS
VL: DIQMTQSPSSLSASVGDRVTITCRASQDIFNYLNWYQQKPGKAVKLLIYYTSHLETGVPSRFSGSGSGTDYTLTISSLQPEDFATYFCQQGDTLPWTFGQGTKLEIKR
B2: 20BLM (antibody, human IgG1, kappa, L234A L235A, V domains shown)
VH: EVQLVQSGAEVKKPGASVKVSCKASGYTFTSYDMHWVRQAPGQGLEWMGRIDPQSGGEKYAQKFQGRATLTVDTSTSTAYMELSRLRSDDTAVYYCARYDYGGYFDVWGQGTLVTVSS
VL: DIQMTQSPSSLSASVGDRVTITCRASQDIYNYLNWYQQKPGKAVKLLIYYTSRLETGVPSRFSGSGSGTDYTLTISSLQPEDFATYFCQQGDTLPWTFGQGTKLEIKR
B3: 14BLM (antibody, human IgG1, kappa, L234A L235A, V domains shown)
VH: EVQLVQSGAEVKKPGASVKVSCKASGYTFTSYDTHWVRQAPGQGLEWMGRIDPQSGGIKYAQKFQGRATLTVDTSTSTAYMELSRLRSDDTAVYYCARWDYGGYFDVWGQGTLVTVSS
VL: DIQMTQSPSSLSASVGDRVTITCRASQDIYNYLNWYQQKPGKAVKLLIYYTSYLETGVPSRFSGSGSGTDYTLTISSLQPEDFATYFCQQGDTLPWTFGQGTKLEIKR
B4: 17BLM (antibody, human IgG1, kappa, L234A L235A, V domains shown)
VH: EVQLVQSGAEVKKPGASVKVSCKASGYTFTSYDMHWVRQAPGQGLEWMGRIDPQSGGIKYAQKFQGRATLTVDTSTSTAYMELSRLRSDDTAVYYCARWDYGGYFDVWGQGTLVTVSS
VL: DIQMTQSPSSLSASVGDRVTITCRASQDIYNYLNWYQQKPGKAVKLLIYYTSRLETGVPSRFSGSGSGTDYTLTISSLQPEDFATYFCQQGDELPWTFGQGTKLEIKR
B5: 10BLM (antibody, human IgG1, kappa, L234A L235A, V domains shown)
VH: EVQLVQSGAEVKKPGASVKVSCKASGYTFTSYDMHWVRQAPGQGLEWMGRIDPQSGGTKYAQKFQGRATLTVDTSTSTAYMELSRLRSDDTAVYYCARWDYGGYFDVWGQGTLVTVSS
VL: DIQMTQSPSSLSASVGDRVTITCRASQDIYNYLNWYQQKPGKAVKLLIYYTSVLETGVPSRFSGSGSGTDYTLTISSLQPEDFATYFCQQGDTLPWTFGQGTKLEIKR
B6: 13BLM (antibody, human IgG1, kappa, L234A L235A, V domains shown)
VH: EVQLVQSGAEVKKPGASVKVSCKASGYTFTSYDMHWVRQAPGQGLEWMGRIDPQTGDIKYAQKFQGRATLTVDTSTSTAYMELSRLRSDDTAVYYCARWDYGGQFDVWGQGTLVTVSS
VL: DIQMTQSPSSLSASVGDRVTITCRASQDIYNYLNWYQQKPGKAVKLLIYYTSGLETGVPSRFSGSGSGTDYTLTISSLQPEDFATYFCQQGDTLPWTFGQGTKLEIKR

The target of the assay is human LAP-TGFβ1 expressed on P3U1 cells (human, UniProt P01137 30-390). The assay is described as follows: cell-based or functional assay.
Chain of human LAP-TGFβ1 expressed on P3U1 cells (P01137 30-390): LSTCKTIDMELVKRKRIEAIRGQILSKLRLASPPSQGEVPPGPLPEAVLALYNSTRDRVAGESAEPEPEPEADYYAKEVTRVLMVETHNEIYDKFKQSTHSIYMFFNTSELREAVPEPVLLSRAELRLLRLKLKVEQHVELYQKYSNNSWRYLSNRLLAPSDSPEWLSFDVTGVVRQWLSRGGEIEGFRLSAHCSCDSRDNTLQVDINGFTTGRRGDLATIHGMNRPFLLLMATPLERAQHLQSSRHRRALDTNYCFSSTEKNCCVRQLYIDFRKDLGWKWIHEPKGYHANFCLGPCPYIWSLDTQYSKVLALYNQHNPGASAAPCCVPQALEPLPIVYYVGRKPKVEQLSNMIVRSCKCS
For the molecule B1, the “Average EC50” value was determined as 0.08 mg/L, the “ELISA assay 2 EC50” value stood at 0.13 mg/L and the “ELISA assay #1 EC50” value amounted to 0.0295 mg/L.
On to B2, for which the “Average EC50” value stood at 0.033 mg/L, the “ELISA assay 2 EC50” value was 0.008 mg/L and the “ELISA assay #1 EC50” value is 0.0574 mg/L.
On to B3, for which the “Average EC50” value came to 0.158 mg/L, the “ELISA assay 2 EC50” value stood at 0.146 mg/L and the “ELISA assay #1 EC50” value was 0.169 mg/L.
With B4, the “Average EC50” value was found to be 0.063 mg/L, the “ELISA assay 2 EC50” value was found to be 0.089 mg/L and the “ELISA assay #1 EC50” value worked out at 0.0357 mg/L.
In the case of B5, the “Average EC50” value was 0.083 mg/L, the “ELISA assay 2 EC50” value was 0.134 mg/L and the “ELISA assay #1 EC50” value was found to be 0.0332 mg/L.
For B6, the “Average EC50” value was found to be 0.092 mg/L, the “ELISA assay 2 EC50” value was determined as 0.105 mg/L and the “ELISA assay #1 EC50” value worked out at 0.0785 mg/L.
